The source of these data is patent US20100273160A1.

For this test, the target named is T1, MIS type II receptor (MISRII) on mouse ovarian cancer cell lines MOVCAR 7 and 4306 (mouse) (UniProt Q8K592).
T1 sequence (looked up): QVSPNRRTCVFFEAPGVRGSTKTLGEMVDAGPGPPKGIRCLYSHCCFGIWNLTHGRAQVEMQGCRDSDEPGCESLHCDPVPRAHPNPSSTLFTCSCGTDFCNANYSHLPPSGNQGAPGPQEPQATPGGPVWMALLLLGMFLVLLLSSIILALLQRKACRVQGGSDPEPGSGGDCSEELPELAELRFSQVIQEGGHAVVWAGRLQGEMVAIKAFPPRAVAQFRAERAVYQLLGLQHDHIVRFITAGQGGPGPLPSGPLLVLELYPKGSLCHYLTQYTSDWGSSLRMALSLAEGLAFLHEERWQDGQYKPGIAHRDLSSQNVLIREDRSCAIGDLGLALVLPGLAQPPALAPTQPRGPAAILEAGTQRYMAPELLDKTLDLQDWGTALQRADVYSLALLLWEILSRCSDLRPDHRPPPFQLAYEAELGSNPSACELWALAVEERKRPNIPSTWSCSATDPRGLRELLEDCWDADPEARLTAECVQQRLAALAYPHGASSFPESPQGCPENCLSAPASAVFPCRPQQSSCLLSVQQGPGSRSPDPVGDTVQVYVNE
Nature of the test: cell-based or functional assay.

B1: recombinant human Mullerian Inhibiting Substance (MIS) (ligand)
chain: LRAEEPAVGTSGLIFREDLDWPPGSPQEPLCLVALGGDSNGSSSPLRVVGALSAYEQAFLGAVQRARWGPRDLATFGVCNTGDRQAALPSLRRLGAWLRDPGGQRLVVLHLEEVTWEPTPSLRFQEPPPGGAGPPELALLVLYPGPGPEVTVTRAGLPGAQSLCPSRDTRYLVLAVDRPAGAWRGSGLALTLQPRGEDSRLSTARLQALLFGDDHRCFTRMTPALLLLPRSEPAPLPAHGQLDTVPFPPPRPSAELEESPPSADPFLETLTRLVRALRVPPARASAPRLALDPDALAGFPQGLVNLSDPAALERLLDGEEPLLLLLRPTAATTGDPAPLHDPTSAPWATALARRVAAELQAAAAELRSLPGLPPATAPLLARLLALCPGGPGGLGDPLRALLLLKALQGLRVEWRGRDPRGPGRAQRSAGATAADGPCALRELSVDLRAERSVLIPETYQANNCQGVCGWPQSDRNPRYGNHVVLLLKMQARGAALARPPCCVPTAYAGKLLISLSEERISAHHVPNMVATECGCR
In the case of B1, the MTT proliferation assay, 4306 SP cells after first sort, 10 µg/ml MIS, inhibition versus vehicle came out at 37%; the MTT proliferation assay, 4306 SP cells after sort 2, MIS, inhibition was determined as 60%; the MTT proliferation assay, 4306 SP cells after sort 3, MIS, inhibition (not significant) stood at 17%; the MTT proliferation assay, MOVCAR 7 NSP cells after first sort, 10 µg/ml MIS, inhibition versus vehicle came to 93%. This molecule also showed an MTT proliferation assay, MOVCAR 7 SP cells after first sort, 10 µg/ml MIS, inhibition versus vehicle of 86%; an MTT proliferation assay, MOVCAR 7 SP cells after sort 2, MIS, inhibition of 93%; an MTT proliferation assay, MOVCAR 7 SP cells after sort 3, MIS, inhibition of 94%.
